In patent US7381537B2, “Use of inhibitors of glutaminyl cyclases for treatment and prevention of disease” (Probiodrug AG, priority 2003, dated 2008) one finds Km, kcat and kcat/Km data, which are given here for one protein.

What all share (assay): purified protein, by the assay type;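 further: initial rates read in microplates at 30 °C, with enzyme activity quantified against an ammonia calibration curve recorded under the same assay conditions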
Substrate in data set [1]: CC(C)C[C@H](NC(=O)[C@H](CCCNC(=N)N)NC(=O)[C@H](CCCCN)NC(=O)[C@H](Cc1ccccc1)NC(=O)C[C@@H](N)CCC(N)=O)C(=O)N[C@@H](C)C(N)=O
The following applies: other: text b245; pH 8.8.

Substrate in data set [2]: CC(C)C[C@H](NC(=O)[C@H](CCCCN)NC(=O)[C@H](CCC(N)=O)NC(=O)[C@H](Cc1c[nH]cn1)NC(=O)[C@H](Cc1c[nH]cn1)NC(=O)[C@@H](NC(=O)[C@H](CCC(=O)O)NC(=O)[C@H](Cc1ccc(O)cc1)NC(=O)CNC(=O)[C@H](CO)NC(=O)[C@H](CC(=O)O)NC(=O)[C@H](Cc1c[nH]cn1)NC(=O)[C@H](CCCNC(=N)N)NC(=O)[C@H](Cc1ccccc1)NC(=O)[C@@H](N)CCC(N)=O)C(C)C)C(=O)N[C@H](C(=O)N[C@@H](Cc1ccccc1)C(=O)N[C@@H](Cc1ccccc1)C(=O)N[C@@H](C)C(N)=O)C(C)C
The conditions noted are these: other: recombinant human QC, buffer solution containing 1% DMSO; pH 8.8.

Substrate in data set [3]: C[C@H](NC(=O)[C@H](C)NC(=O)[C@H](C)NC(=O)[C@H](C)NC(=O)[C@@H](N)CCC(N)=O)C(N)=O
The following applies: other: Table 6, influence of substrate length; pH 8.8.

Substrate in data set [4]: C[C@H](NC(=O)[C@H](C)NC(=O)[C@H](CO)NC(=O)[C@H](C)NC(=O)[C@H](C)NC(=O)[C@@H](N)CCC(N)=O)C(N)=O
The following applies: other: Table 6, influence of substrate length; pH 8.8.

Substrate in data set [5]: N=C(N)NCCC[C@H](NC(=O)[C@H](Cc1ccccc1)NC(=O)[C@@H](N)CCC(N)=O)C(=O)N[C@@H](Cc1c[nH]cn1)C(=O)N[C@@H](CC(=O)O)C(=O)N[C@@H](CO)C(=O)NCC(=O)N[C@@H](Cc1ccc(O)cc1)C(=O)N[C@@H](CCC(=O)O)C(N)=O
The following applies: other: recombinant human QC, buffer solution containing 1% DMSO; pH 8.8.

B1: human QC (Homo sapiens) (protein)
chain: VSPSASAWPEEKNYHQPAILNSSALRQIAEGTSISEMWQNDLQPLLIERYPGSPGSYAARQHIMQRIQRLQADWVLEIDTFLSQTPYGYRSFSNIISTLNPTAKRHLVLACHYDSKYFSHWNNRVFVGATDSAVPCAMMLELARALDKKLLSLKTVSDSKPDLSLQLIFFDGEEAFLHWSPQDSLYGSRHLAAKMASTPHPPGARGTSQLHGMDLLVLLDLIGAPNPTFPNFFPNSARWFERLQAIEHELHELGLLKDHSLEGRYFQNYSYGGVIQDDHIPFLRRGVPVLHLIPSPFPEVWHTMDDNEENLDESTIDNLNKILQVFVLEYLHL
One may read the Km as the concentration of substrate that gives half-maximal velocity. In general, kcat refers to the maximal rate divided by the concentration of active sites. The kcat/Km is the second-order rate constant that governs catalysis at low substrate concentration. In the case of B1, the Km worked out at 2500 ± 200 µM in data set [1]; 162 ± 12 µM in data set [2]; 65 ± 3 µM in data set [3]; 79 ± 6 µM in data set [4]; 155 ± 4 µM in data set [5]. Besides, the catalytic constant (kcat) was 3.5 ± 0.1 s⁻¹ in data set [1]; 62 ± 3 s⁻¹ in data set [2]; 60.5 ± 0.7 s⁻¹ in data set [3]; 55.3 ± 1.6 s⁻¹ in data set [4]; 41.4 ± 0.4 s⁻¹ in data set [5]. Moreover, the kcat/Km in data set [1] was found to be 1300 ± 100 M⁻¹ s⁻¹; in data set [2], 383000 ± 10000 M⁻¹ s⁻¹; in data set [3], 1.174e+06 ± 43000 M⁻¹ s⁻¹; in data set [4], 700000 ± 33000 M⁻¹ s⁻¹; in data set [5], 267000 ± 4000 M⁻¹ s⁻¹.
